The results in this text go back to patent US20160194407A1 (AstraZeneca / MedImmune, published 2016).

Numbering of substitutions follows the chain as printed.

For test [1], the target named is T1, recombinant mature human CD73 (amino acid positions 1-526) with C-terminal 6x-histidine tag (human, UniProt P21589 27-553).
T1 sequence: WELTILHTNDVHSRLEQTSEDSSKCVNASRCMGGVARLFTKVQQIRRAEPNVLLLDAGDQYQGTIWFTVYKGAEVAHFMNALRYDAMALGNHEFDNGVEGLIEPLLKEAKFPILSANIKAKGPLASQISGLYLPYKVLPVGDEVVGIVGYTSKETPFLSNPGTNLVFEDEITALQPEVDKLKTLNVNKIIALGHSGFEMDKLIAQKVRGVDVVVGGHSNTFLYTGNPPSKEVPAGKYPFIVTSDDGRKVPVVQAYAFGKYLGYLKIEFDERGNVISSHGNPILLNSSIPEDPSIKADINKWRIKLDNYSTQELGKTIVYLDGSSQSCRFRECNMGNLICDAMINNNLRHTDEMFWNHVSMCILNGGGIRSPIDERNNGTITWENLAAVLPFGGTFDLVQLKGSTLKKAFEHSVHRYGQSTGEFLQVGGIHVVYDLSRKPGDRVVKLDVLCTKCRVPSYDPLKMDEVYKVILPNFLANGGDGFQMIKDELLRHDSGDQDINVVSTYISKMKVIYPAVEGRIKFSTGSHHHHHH
The test can be described thus: cell-based or functional assay.

Test [2] has as its target T2, cynomolgus CD73 extracellular domain (ECD) (cynomolgus).
T2 construct: extracellular domain; also called Cynomolgus CD73 ECD; cyno CD73 (SPR Proteon)
Description: SPR (Proteon), IgG1-TM.

Another test deals with T3, CD73 chimera KO_Nterm (chicken (Gallus gallus); human).
T3 construct: Human limits converted from mature numbering (+26); also called N-terminal domain-swapped CD73
T3 chain: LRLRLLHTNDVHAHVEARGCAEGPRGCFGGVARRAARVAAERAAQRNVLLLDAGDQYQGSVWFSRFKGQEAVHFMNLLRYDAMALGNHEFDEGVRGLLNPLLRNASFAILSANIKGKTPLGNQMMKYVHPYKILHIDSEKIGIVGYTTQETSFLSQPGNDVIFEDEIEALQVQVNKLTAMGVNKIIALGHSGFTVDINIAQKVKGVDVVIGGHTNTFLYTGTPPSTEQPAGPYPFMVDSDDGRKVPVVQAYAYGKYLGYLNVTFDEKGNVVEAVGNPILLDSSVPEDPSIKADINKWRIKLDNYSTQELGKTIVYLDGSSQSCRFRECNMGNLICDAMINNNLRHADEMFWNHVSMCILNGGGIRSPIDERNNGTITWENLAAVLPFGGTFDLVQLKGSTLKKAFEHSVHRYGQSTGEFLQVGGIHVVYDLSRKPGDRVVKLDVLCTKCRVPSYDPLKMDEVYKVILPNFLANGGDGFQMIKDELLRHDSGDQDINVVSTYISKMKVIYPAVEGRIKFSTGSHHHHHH
The test can be described thus: SPR ProteOn, CD73 variant on HTG chip.

A further test addresses T4, human CD73 V144K + N185G (human, UniProt P21589 27-553).
T4 chain: T1 sequence with V144K, N185G, T350A
Description: SPR ProteOn, CD73 variant on HTG chip.

Another test has as its target T5, human CD73 K180A + N185G (human, UniProt P21589 27-553, K180A; N185G).
T5 sequence: T1 sequence with K180A, N185G
The test can be described thus: SPR ProteOn, CD73 variant on HTG chip.

A further test addresses T6, CD73 chimera KO_Linker (human; chicken (Gallus gallus)).
T6 construct: Human limits converted from mature numbering (+26); also called KO_292-310; linker region-swapped CD73
T6 chain: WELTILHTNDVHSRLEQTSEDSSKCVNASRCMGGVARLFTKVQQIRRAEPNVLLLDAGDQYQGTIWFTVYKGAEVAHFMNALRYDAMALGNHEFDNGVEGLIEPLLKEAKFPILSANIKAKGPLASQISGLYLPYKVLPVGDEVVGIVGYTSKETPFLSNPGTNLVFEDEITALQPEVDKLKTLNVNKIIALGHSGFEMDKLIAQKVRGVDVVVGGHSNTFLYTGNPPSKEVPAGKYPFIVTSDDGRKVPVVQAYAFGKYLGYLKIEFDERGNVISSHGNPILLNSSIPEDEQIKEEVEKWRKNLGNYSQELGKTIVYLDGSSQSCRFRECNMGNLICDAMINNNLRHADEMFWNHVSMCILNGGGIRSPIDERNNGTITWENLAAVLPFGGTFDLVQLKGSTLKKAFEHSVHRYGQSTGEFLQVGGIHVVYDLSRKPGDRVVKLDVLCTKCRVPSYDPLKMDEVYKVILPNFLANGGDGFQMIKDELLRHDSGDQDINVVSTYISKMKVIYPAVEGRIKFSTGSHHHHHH
Description: SPR ProteOn, His-tagged CD73 variant on HTG chip.

B1: MEDI9447 (antibody, V domains shown)
VH: EVQLLESGGGLVQPGGSLRLSCAASGFTFSSYAYSWVRQAPGKGLEWVSAISGSGGRTYYADSVKGRFTISRDNSKNTLYLQMNSLRAEDTAVYYCARLGYGRVDEWGRGTLVTVSS
VL: QSVLTQPPSASGTPGQRVTISCSGSLSNIGRNPVNWYQQLPGTAPKLLIYLDNLRLSGVPDRFSGSKSGTSASLAISGLQSEDEADYYCATWDDSHPGWTFGGGTKLTVL
notes: also called clone 10.3 antibody; 73combo3
What is called Kd is the free concentration of one partner at which half of the binding sites on the other are occupied at equilibrium, for simple one-to-one binding. High values mean lower affinity, low ones higher affinity. Broadly, the kon is the rate constant with which the complex forms. Read a low kon as slow association. For B1, in test [1], the “inhibition of sCD73 hydrolysis of AMP (CellTiterGlo), dose response” value is ~1 IgG per sCD73 dimer (molar ratio). In test [2], this molecule gave a dissociation constant (Kd) of 7 pM. Also, the results for the binding result with CD73 chimera KO_Nterm, with human CD73 V144K + N185G and with human CD73 K180A + N185G were “no binding (tested: 5 nM to 0.3 nM)”, “no binding” and “no binding”, respectively. This molecule showed a kon in the test with CD73 chimera KO_Linker of 5.57e+06 M⁻¹ s⁻¹.
